Laboratory results as given in patent publication US20240376214A1, “ANTI-C-MET ANTIBODIES AND ANTIBODY-DRUG CONJUGATES” (BYONDIS B.V., priority 2021, published 2024).

B1: ADC1a (antibody, human IgG1, kappa, V domains shown)
VH: QVQLVQSGAEVKKPGASVKVSCKASGYIFTDYFMNWVRQACGQGLEWMGRVNPKNGDITYNQKFRGRVSLTKDTSINTAYMELSGLTSDDTAIYYCAYDGYYDGMDFWGQGTSVTVSS
VL: ELVMTQSPSSLSASVGDRVTITCRANSSVSSNFLHWYQQKPGKAPKLLISSTSNLAFGVPSRFSGTGSGTDFSLTISSLQPEDFAIYYCHQYSGHPFTFGQGTKLEIKR
modifications: vc-seco-DUBA linker-drug on the engineered cysteine at HC position 41 (Kabat); DAR 1.7
B2: ADC1 (antibody, human IgG1, kappa, V domains shown)
VH: EVQLQQSGPELLKPGASVKMSCKASGYIFTDYFMNWVKQSCGKSLEWIGRVNPKNGDITYNQKFRGKATLTVDKSLTTAYMQLNSLTSEDSAVYFCAYDGYYDGMDFWGQGTSVTVSS
VL: ENVLTQSPAIMSASPGEKVTMTCRANSSVSSNFLHWYQQKSGASPKLWISSTSNLAFGVPPRFSGSGSGTSYSLTISSVEAEDAATYYCHQYSGHPFTFGSGTKLEIKR
modifications: vc-seco-DUBA linker-drug on the engineered cysteine at HC position 41 (Kabat); DAR 1.5
B3: ADC3a (antibody, human IgG1, kappa, V domains shown)
VH: QVQLVQSGAEVKKPGASVKVSCKASGYTFTDYYLNWVRQACGQGLEWMGLIFPGNDKTEYSEKFKGRVTLTTDTSISTAYMELSSLTSDDTALYYCSGGDYGGFVYWGQGTLVTVSS
VL: DIQLTQSPSSLSASVGDRVTITCGASENIYGALNWYQQKPGKAPKLLIYGATNLADGVPSRFSGSGSGTDFTLTISSLQPEDFATYYCQNVLSSPLTFGPGTKVDIKR
modifications: vc-seco-DUBA linker-drug on the engineered cysteine at HC position 41 (Kabat); DAR 1.9
B4: ADC3e (antibody, human IgG1, kappa, V domains shown)
VH: QVQLQESGAEVKKPGASVKVSCKASGYTFTDYYLNWVRQACGQGLEWMGLIFPGNDKTEYSEKFKGRVTMTRDTSTSTVYMELSSLRSEDTAVYYCSGGDYGGFVYWGQGTLVTVSS
VL: DIQMTQSPSSLSASVGDRVTITCGASENIYGALNWYQQKPGKAPKLLIYGATNLADGVPSRFSGSGSGTDFTLTISSLQPEDVATYYCQNVLSSPLTFGSGTKLEIKR
modifications: vc-seco-DUBA linker-drug on the engineered cysteine at HC position 41 (Kabat); DAR 1.9
B5: ADC3c (antibody, human IgG1, kappa, V domains shown)
VH: QVQLVQSGAEVKKPGASVKVSCKASGYTFTDYYLNWVRQACGQGLEWMGLIFPGNDKTEYSEKFKGRVTLTTDTSISTAYMELSSLTSDDTALYYCSGGDYGGFVYWGQGTLVTVSS
VL: DIQMTQSPSSLSASVGDRVTITCGASENIYGALNWYQQKPGKAPKLLIYGATNLADGVPSRFSGSGSGTDFTLTISSLQPEDVATYYCQNVLSSPLTFGSGTKLEIKR
modifications: vc-seco-DUBA linker-drug on the engineered cysteine at HC position 41 (Kabat); DAR 1.8
B6: ADC3d (antibody, human IgG1, kappa, V domains shown)
VH: QVQLQESGAEVKKPGASVKVSCKASGYTFTDYYLNWVRQACGQGLEWMGLIFPGNDKTEYSEKFKGRVTMTRDTSTSTVYMELSSLRSEDTAVYYCSGGDYGGFVYWGQGTLVTVSS
VL: DIQLTQSPSSLSASVGDRVTITCGASENIYGALNWYQQKPGKAPKLLIYGATNLADGVPSRFSGSGSGTDFTLTISSLQPEDFATYYCQNVLSSPLTFGPGTKVDIKR
modifications: vc-seco-DUBA linker-drug on the engineered cysteine at HC position 41 (Kabat); DAR 1.8
B7: ADC3 (antibody, human IgG1, kappa, V domains shown)
VH: QIQLQQSGPELVKPGASVKISCKASGYTFTDYYLNWVKQRCGQGLEWIGLIFPGNDKTEYSEKFKGKATLTVDTSSSTAYIQLSRLSSEDSAIYFCSGGDYGGFVYWGQGTLVTVSS
VL: DIQMTQSPTSLSASVGETVTITCGASENIYGALNWYQRKQGKSPQLLIYGATNLADGMSSRFSGSGSGRQFSLKINSLHPDDVATYFCQNVLSSPLTFGSGTKLEIKR
modifications: vc-seco-DUBA linker-drug on the engineered cysteine at HC position 41 (Kabat); DAR 1.1
B8: ADC2a (antibody, human IgG1, kappa, V domains shown)
VH: QVQLVQSGAELRKPGSSVKVSCRASGYVFPDYEMHWVRQACGQGLEWMGAFDPETGDTTYNQNFKGRVTIAADKSTSTAYMELRSLRSEDTAIYYCARDYKYLYYYAMDNWGQGTMVTVSS
VL: EIVLTQSPSLLSASIGDRVTIPCTASSSITSSYLHWYQQKPGKAPKLLIYSTTNLASGVPSRFSGSGSGTEFTLTISSLQPEDFATYYCHQYRRSPLTFGGGTKLEIKR
modifications: vc-seco-DUBA linker-drug on the engineered cysteine at HC position 41 (Kabat); DAR 1.7
B9: ADC2b (antibody, human IgG1, kappa, V domains shown)
VH: QVQLVQSGAEVKKPGSSVKVSCKASGYVFPDYEMHWVRQACGQGLEWMGAFDPETGDTTYNQNFKGRVTITADKSTSTAYMELSSLRSEDTAVYYCARDYKYLYYYAMDNWGQGTTVTVSS
VL: DIQMTQSPSSLSASVGDRVTITCTASSSITSSYLHWYQQKPGKAPKLLIYSTTNLASGVPSRFSGSGSGTDFTLTISSLQPEDFATYYCHQYRRSPLTFGGGTKLEIKR
modifications: vc-seco-DUBA linker-drug on the engineered cysteine at HC position 41 (Kabat); DAR 1.7
B10: ADC2c (antibody, human IgG1, kappa, V domains shown)
VH: QVQLVQSGAEVKKPGSSVKVSCKASGYVFPDYEMHWVRQACGQGLEWMGAFDPETGDTTYNQNFKGRVTITADKSTSTAYMELSSLRSEDTAVYYCARDYKYLYYYAMDNWGQGTTVTVSS
VL: EIVLTQSPSLLSASIGDRVTIPCTASSSITSSYLHWYQQKPGKAPKLLIYSTTNLASGVPSRFSGSGSGTEFTLTISSLQPEDFATYYCHQYRRSPLTFGGGTKLEIKR
modifications: vc-seco-DUBA linker-drug on the engineered cysteine at HC position 41 (Kabat); DAR 1.7

target: human c-Met (HGFR), full length, on the cell surface (human, UniProt P08581 25-1390); test: cell-based or functional assay
Sequence (P08581 25-1390 limits assumed): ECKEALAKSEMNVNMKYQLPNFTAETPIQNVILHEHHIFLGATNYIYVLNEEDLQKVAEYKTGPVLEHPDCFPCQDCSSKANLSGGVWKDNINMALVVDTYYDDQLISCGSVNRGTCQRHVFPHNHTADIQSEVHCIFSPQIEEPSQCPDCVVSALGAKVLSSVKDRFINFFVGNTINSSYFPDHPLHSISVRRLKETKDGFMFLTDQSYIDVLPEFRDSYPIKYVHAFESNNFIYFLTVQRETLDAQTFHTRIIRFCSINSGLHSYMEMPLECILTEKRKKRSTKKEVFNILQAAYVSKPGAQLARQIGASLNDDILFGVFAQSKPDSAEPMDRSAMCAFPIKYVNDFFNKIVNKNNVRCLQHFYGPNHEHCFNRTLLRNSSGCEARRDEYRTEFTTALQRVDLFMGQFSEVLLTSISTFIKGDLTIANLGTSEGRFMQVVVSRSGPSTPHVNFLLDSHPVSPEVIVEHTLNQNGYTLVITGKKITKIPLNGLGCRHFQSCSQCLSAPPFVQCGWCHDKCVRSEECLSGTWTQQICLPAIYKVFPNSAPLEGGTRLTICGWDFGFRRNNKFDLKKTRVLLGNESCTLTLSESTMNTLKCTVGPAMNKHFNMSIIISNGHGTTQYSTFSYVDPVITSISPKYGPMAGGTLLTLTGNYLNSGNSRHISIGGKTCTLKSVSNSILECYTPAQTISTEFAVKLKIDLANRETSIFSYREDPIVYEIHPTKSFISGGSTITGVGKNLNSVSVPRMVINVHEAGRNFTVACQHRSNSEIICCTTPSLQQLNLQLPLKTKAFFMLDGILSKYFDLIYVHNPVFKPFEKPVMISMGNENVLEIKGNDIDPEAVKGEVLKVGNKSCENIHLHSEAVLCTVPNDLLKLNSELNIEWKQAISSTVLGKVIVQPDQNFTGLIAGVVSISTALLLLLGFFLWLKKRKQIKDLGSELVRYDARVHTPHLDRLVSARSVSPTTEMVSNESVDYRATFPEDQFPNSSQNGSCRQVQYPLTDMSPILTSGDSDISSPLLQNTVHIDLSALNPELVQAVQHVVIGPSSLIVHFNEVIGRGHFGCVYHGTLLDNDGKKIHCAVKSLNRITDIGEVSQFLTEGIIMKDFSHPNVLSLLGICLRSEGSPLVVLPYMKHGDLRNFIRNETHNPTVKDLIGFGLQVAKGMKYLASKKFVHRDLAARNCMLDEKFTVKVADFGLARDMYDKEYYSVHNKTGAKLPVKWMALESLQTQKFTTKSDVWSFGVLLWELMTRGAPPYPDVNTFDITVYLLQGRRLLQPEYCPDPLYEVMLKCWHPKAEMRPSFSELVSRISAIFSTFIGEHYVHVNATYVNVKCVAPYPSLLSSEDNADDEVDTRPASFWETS

In order of falling “Efficacy (%), in vitro cytotoxicity, MKN-45, -HGF” value:
1. B8  86%
2. B3  85%
3. B1  84%
4. B5  84%
5. B9  84%
6. B10  84%
7. B6  82%
8. B4  81%
9. B2  72%
10. B7  50%

In order of rising “Efficacy (%), in vitro cytotoxicity, NCI-H596, +HGF” value:
1. B8  26%
2. B2  29%
3. B10  32%
4. B9  34%
5. B1  40%
6. B6  41%
7. B3  43%
8. B4  44%
9. B5  44%
10. B7  53%

In order of rising “Efficacy (%), in vitro cytotoxicity, NCI-H596, -HGF” value:
1. B3  3%
2. B10  3%
3. B6  5%
4. B8  8%
5. B5  10%
6. B9  10%
7. B4  11%
8. B1  14%
9. B2  16%
10. B7  16%

In order of falling “Efficacy (%), in vitro cytotoxicity, PC-3, +HGF” value:
1. B1  77%
2. B8  76%
3. B9  75%
4. B10  75%
5. B4  74%
6. B6  73%
7. B3  72%
8. B5  72%
9. B2  42%
10. B7  30%

In order of rising “Efficacy (%), in vitro cytotoxicity, PC-3, -HGF” value:
1. B7  24%
2. B2  41%
3. B3  73%
4. B5  73%
5. B4  74%
6. B6  74%
7. B10  76%
8. B8  77%
9. B9  77%
10. B1  78%

In order of rising “IC50 1, in vitro cytotoxicity, PC-3, -HGF” value:
1. B4  0.04 nM
2. B5  0.04 nM
3. B6  0.04 nM
4. B3  0.05 nM
5. B9  0.05 nM
6. B8  0.06 nM
7. B10  0.08 nM
8. B1  0.6 nM

In order of rising “IC50 2, in vitro cytotoxicity, PC-3, -HGF” value:
1. B3  5.77 nM
2. B8  40 nM
3. B6  54 nM
4. B10  58 nM
5. B9  100 nM
6. B5  112 nM
7. B1  224 nM
8. B4  541 nM

In order of falling “IC50, in vitro cytotoxicity, MKN-45, -HGF” value:
1. B7  0.77 nM
2. B2  0.73 nM
3. B3  0.55 nM
4. B6  0.5 nM
5. B4  0.46 nM
6. B8  0.44 nM
7. B1  0.42 nM
8. B5  0.41 nM
9. B10  0.41 nM
10. B9  0.4 nM

Going from B1 to B2, the “IC50, in vitro cytotoxicity, NCI-H596, +HGF” value (“IC50 … NCI-H596, +HGF” below) falls from greater than 10 nM to 0.38 nM.

B3 and B4 are within 1.5-fold of each other in “IC50 … NCI-H596, +HGF” value: 2.14 nM for the first, 2.52 nM for the second.

B5 and B6 are within 1.5-fold of each other in “IC50 … NCI-H596, +HGF” value: 1.89 nM for the first, 2.17 nM for the second.

Compared with B7, B8 is higher in “IC50 … NCI-H596, +HGF” value: 1.86 nM for the first, greater than 10 nM for the second.

B9 and B10 cannot be ordered by “IC50 … NCI-H596, +HGF” value: greater than 10 nM for the first, greater than 10 nM for the second.

B1 and B2 cannot be ordered by “IC50, in vitro cytotoxicity, NCI-H596, -HGF” value (shortened to “IC50 … NCI-H596, -HGF”): greater than 10 nM for the first, greater than 10 nM for the second.

B3 and B4 cannot be ordered by “IC50 … NCI-H596, -HGF” value: greater than 10 nM for the first, greater than 10 nM for the second.

B5 and B6 cannot be ordered by “IC50 … NCI-H596, -HGF” value: greater than 10 nM for the first, greater than 10 nM for the second.

B7 and B8 cannot be ordered by “IC50 … NCI-H596, -HGF” value: greater than 10 nM for the first, greater than 10 nM for the second.

B9 and B10 cannot be ordered by “IC50 … NCI-H596, -HGF” value: greater than 10 nM for the first, greater than 10 nM for the second.

In order of rising “IC50, in vitro cytotoxicity, PC-3, +HGF” value:
1. B2  0.185 nM
2. B7  0.224 nM
3. B3  ~0.71 nM
4. B8  ~0.74 nM
5. B1  ~1.22 nM
6. B5  ~1.85 nM
7. B10  ~1.97 nM
8. B9  ~2.46 nM
9. B6  ~2.49 nM
10. B4  ~2.86 nM

In order of rising “IC50, in vitro cytotoxicity, PC-3, -HGF” value:
1. B2  0.069 nM
2. B7  0.076 nM
